# According to PMC9270373:
# Square brackets hold non-standard residues; d marks the D form. Ends that are not written are not given here. pT = C[C@@H](OP(=O)(O)O)[C@H](N)C(=O)O
# Tests used:
# [1] = biological target: potato 14-3-3 protein St14f (Solanum tuberosum L. (potato)); test: crystal structure; St14f free form, 2.5 Å; hanging drop, 12% (w/v) PEG 8000, 0.2 M ammonium tartrate pH 7, 277 K; three chains (A, B, C) in the asymmetric unit, dimers AA and BC
# [2] = biological target: St14f D217A (Solanum tuberosum L. (potato)); test: thermal shift assay; 10 µM St14f with no and with 100 µM StFDL1 peptide; SYPRO Orange; 10 mM HEPES pH 7.5, 0.15 M NaCl; heated from 25 to 99 °C; ΔTm = melting temperature difference with and without the peptide
# [3] = biological target: St14f I221A M222A (Solanum tuberosum L. (potato)); test: as above
# [4] = biological target: St14f L229A (Solanum tuberosum L. (potato)); test: as above
# [5] = biological target: St14f S214L (Solanum tuberosum L. (potato)); test: as above
# [6] = biological target: St14f S214M (Solanum tuberosum L. (potato)); test: as above
# [7] = biological target: St14f S214T (Solanum tuberosum L. (potato)); test: as above
# [8] = biological target: St14f S218G (Solanum tuberosum L. (potato)); test: as above
# [9] = biological target: St14f S218L (Solanum tuberosum L. (potato)); test: as above
# [10] = biological target: St14f S218M (Solanum tuberosum L. (potato)); test: as above
# [11] = biological target: St14f Y215A (Solanum tuberosum L. (potato)); test: as above
# [12] = biological target: potato 14-3-3 protein St14f (Solanum tuberosum L. (potato)); test: as above
molecule,measurement,setting,value
potato 14-3-3 protein St14f (natural protein),stoichiometry N,[1],2
LNRTS[pT]APF [StFDL1 peptide (LNRTSpTAPF)],ΔTm,[2],6.67 °C
same,ΔTm,[3],4.63 °C
same,ΔTm,[4],6.22 °C
same,ΔTm,[5],4.26 °C
same,ΔTm,[6],3.6 °C
same,ΔTm,[7],4.01 °C
same,ΔTm,[8],6.37 °C
same,ΔTm,[9],7.61 °C
same,ΔTm,[10],7.48 °C
same,ΔTm,[11],4.42 °C
same,ΔTm,[12],4.03 °C
